Source: patent publication US20140322162A1

How the values were obtained:
[1] = biological target: H-ferritin binding sites (receptor) on bovine retinal endothelial cell (BREC) homogenate (bovine); assay: saturation binding of 125I-rH-ferritin to BREC homogenate, global non-linear one-site fit
[2] = biological target: H-ferritin binding sites (receptor) on rat brain microvessels (rat); assay: saturation binding of 125I-rH-ferritin to rat brain microvessels, global non-linear one-site fit

Bmax (fmol/mg protein) [1]: 466
Kd [1]: 2.7 nM
Bmax (fmol/mg protein) [2]: 573
Kd [2]: 7.9 nM
Substance: recombinant human H-ferritin (from UniProt P02794 1-183) (ligand)
